Results from IntAct's records for PubMed 28202711.

Tests used:
1433g_human YWHAG [1] = target: 1433g_human YWHAG (UniProt P61981)
1433g_human YWHAG [2] = target: 1433g_human YWHAG (UniProt P61981); remark: listed apart in the source

Sequence of UniProt P61981 (P61981 whole entry): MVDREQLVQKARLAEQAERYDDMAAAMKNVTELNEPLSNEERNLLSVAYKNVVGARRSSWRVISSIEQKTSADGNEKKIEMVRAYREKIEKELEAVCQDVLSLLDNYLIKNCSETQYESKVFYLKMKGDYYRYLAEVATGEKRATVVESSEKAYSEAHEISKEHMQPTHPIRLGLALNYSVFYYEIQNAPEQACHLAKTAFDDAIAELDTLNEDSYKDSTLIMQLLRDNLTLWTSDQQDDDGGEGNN

effect of a mutation on the interaction (1433g_human YWHAG [1])	effect of a mutation on the interaction (1433g_human YWHAG [2])	Substance
with no effect	decreasing interaction strength	Leucine-rich repeat serine/threonine-protein kinase 2 (Homo sapiens), Q5S007 R1441G
–	decreasing interaction strength	Leucine-rich repeat serine/threonine-protein kinase 2 (Homo sapiens), Q5S007 R1441H
–	decreasing interaction strength	Leucine-rich repeat serine/threonine-protein kinase 2 (Homo sapiens), Q5S007 R1441C
